The target in this test is T1, GST-His-hnRNP L RRM2 (162-321) (human, UniProt P14866 162-321).
T1 sequence: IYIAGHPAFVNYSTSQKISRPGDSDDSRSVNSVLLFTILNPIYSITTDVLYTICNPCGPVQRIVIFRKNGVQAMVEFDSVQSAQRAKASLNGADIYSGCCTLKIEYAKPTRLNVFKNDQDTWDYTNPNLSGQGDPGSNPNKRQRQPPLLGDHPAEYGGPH
The test is described as follows: pull-down.

B1: FLAG-SETD2 SHI (2114-2263) (domain or fragment)
chain: NKLSTEERRKLFEQEVAQREAQKQQQQMQNLGMTSPLPYDSLGYNAPHHPFAGYPPGYPMQAYVDPSNPNAGKVLLPTPSMDPVCSPAPYDHAQPLVGHSTEPLSAPPPVPVVPHVAAPVEVSSSQYVAQSDGVVHQDSSVAVLPVPAPG
With B1, the binding result is recorded as “binds”.
